{"source": "patent US20240360208A1", "key": {"[1]": {"molecular_target": "monomeric Fcγ receptor FcγRIIIa (human) (UniProt P08637)", "sequence (P08637 17-208 limits assumed)": "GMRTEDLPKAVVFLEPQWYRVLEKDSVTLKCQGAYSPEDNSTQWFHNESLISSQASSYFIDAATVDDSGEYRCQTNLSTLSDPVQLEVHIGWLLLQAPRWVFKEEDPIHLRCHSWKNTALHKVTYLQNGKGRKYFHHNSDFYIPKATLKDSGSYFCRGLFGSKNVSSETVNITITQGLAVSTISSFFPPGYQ", "assay": "SPR T200, Protein L capture, FcγR at 5 µg/ml, 25 C, pH 7.4"}, "[2]": {"molecular_target": "monomeric Fcγ receptor FcγRIIa (human) (UniProt P12318)", "sequence (P12318 34-217 limits assumed)": "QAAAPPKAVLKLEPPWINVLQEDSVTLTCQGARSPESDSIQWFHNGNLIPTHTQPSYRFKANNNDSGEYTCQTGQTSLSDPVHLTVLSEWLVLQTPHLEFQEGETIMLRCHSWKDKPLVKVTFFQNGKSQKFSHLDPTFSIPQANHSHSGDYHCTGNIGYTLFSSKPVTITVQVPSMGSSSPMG", "assay": "SPR T200, Protein L capture, FcγR at 5 µg/ml, 25 C, pH 7.4"}, "[3]": {"molecular_target": "monomeric Fcγ receptor FcγRIIb (human) (UniProt P31994)", "sequence (P31994 43-217 limits assumed)": "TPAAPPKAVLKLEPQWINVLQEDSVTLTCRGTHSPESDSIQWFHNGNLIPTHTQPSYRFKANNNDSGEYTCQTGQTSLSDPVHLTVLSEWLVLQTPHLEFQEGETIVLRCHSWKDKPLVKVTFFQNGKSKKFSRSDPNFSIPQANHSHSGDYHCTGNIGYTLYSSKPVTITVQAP", "assay": "SPR T200, Protein L capture, FcγR at 5 µg/ml, 25 C, pH 7.4"}, "[4]": {"molecular_target": "biotinylated human single chain FcRn (human) (UniProt P55899)", "sequence (P55899 24-297 limits assumed, chain 1 of 2)": "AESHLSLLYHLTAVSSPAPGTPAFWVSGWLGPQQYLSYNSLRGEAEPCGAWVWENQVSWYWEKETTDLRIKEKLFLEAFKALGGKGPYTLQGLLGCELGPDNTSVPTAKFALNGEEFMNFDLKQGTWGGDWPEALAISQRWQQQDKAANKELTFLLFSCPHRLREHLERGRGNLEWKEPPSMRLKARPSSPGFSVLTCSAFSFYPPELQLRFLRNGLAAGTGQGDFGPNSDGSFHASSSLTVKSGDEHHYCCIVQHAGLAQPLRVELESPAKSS", "sequence (chain, as listed by the source limits assumed, chain 2 of 2)": "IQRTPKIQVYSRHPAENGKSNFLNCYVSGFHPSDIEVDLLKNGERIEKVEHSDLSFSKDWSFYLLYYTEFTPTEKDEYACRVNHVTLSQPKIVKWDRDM", "assay": "SPR Biacore 8K, sc huFcRn on SA chip, 50 nM antibody, 25 C, pH 5"}, "[5]": {"molecular_target": "biotinylated human single chain FcRn (human) (UniProt P55899)", "assay": "SPR Biacore 8K, sc huFcRn on SA chip, 50 nM antibody, 25 C, pH 6"}, "[6]": {"molecular_target": "biotinylated human single chain FcRn (human) (UniProt P55899)", "assay": "SPR Biacore 8K, sc huFcRn on SA chip, 50 nM antibody, 25 C, pH 7.4"}, "[7]": {"molecular_target": "human CCL2 (MCP1) - wild type (wt) (human) (UniProt P13500)", "assay": "cell-based or functional assay"}}}
{"substance": "CNTO888 (antibody)", "values": [{"measurement": "binding amounts of hFcγRs (RU) per 1 RU Ab", "setting": "[1]", "result": 0.001, "unit": "RU per RU"}, {"measurement": "binding amounts of hFcγRs (RU) per 1 RU Ab", "setting": "[2]", "result": 0.003, "unit": "RU per RU"}, {"measurement": "binding amounts of hFcγRs (RU) per 1 RU Ab", "setting": "[3]", "result": 0, "unit": "RU per RU"}, {"measurement": "Binding amount of Ab (RU) per 1RU of FcRn-surface", "setting": "[4]", "result": 0.9, "unit": "RU per RU"}, {"measurement": "Binding amount of Ab (RU) per 1RU of FcRn-surface", "setting": "[5]", "result": 0.35, "unit": "RU per RU"}, {"measurement": "Binding amount of Ab (RU) per 1RU of FcRn-surface", "setting": "[6]", "result": 0, "unit": "RU per RU"}]}
{"substance": "human CCL2/JE/MCP-1 Antibody (R&D Systems Cat #MAB279)", "values": [{"measurement": "THP1 chemotaxis [fold change compared to IgG control]", "setting": "[7]", "result": 3.7, "unit": "fold"}]}
